From patent US6958223 (UNITED STATES SURGICAL, dated 2005) come the findings set out here.

This series concerns the molecule itself. The series can be described thus: circular dichroism of purified D4 in 0.1M sodium phosphate pH 7.0 after two days at 4° C.; self-association into homotrimeric helices. As for the experimental part: The solution was incubated at 4° C. for two days to allow triple helices to form prior to analysis. Spectra were obtained on an Aviv model 62DS spectropolarimeter (Yale University, Molecular Biophysics and Biochemistry Department). A 1 mm path length quartz suprasil fluorimeter cell was used. Following a 10 min. incubation period at 4° C., standard wavelength spectra were recorded from 260 to 190 nm using 10 sec acquisition times and 0.5 nm scan steps. This spectrum is characterized by a negative ellipticity at 198 nm and a positive ellipticity at 221 nm. The magnitudes of both of these absorbances was greater in neutral pH buffer compared to acidic conditions. […] See, e.g., Venugopal et al., Biochemistry, 33, 7948 (1994). Heating at 85° C. for five minutes prior to obtaining the CD spectrum decreased the magnitude of the absorbance at 198 nm and abolished the absorbance at 221 nm (FIG. 33). This behavior is also typical of the triple helical structure of collagen. See, R. S. Bhatnagar et al., Circular Dichroism and the Conformational Analysis of Biomolecules G. D. Fasman, Ed., supra. A thermal melt profile of D4 conducted as above in phosphate buffer gave a melting temperature of about 29° C. […] (See, A. Rossi, et al., Biochemistry 35, 6048 (1996)).

B1: D4, 219 amino acid C-terminal fragment of human collagen Type I (α1), hydroxyproline-containing (other)
chain: MGPPGLAGPPGESGREGAPGAEGSPGRDGSPGAKGDRGETGPAGPPGAPGAPGAPGPVGPAGKSGDRGETGPAGPAGPVGPAGARGPAGPQGPRGDKGETGEQGDRGIKGHRGFSGLQGPPGPPGSPGEQGPSGASGPAGPRGPPGSAGAPGKDGLNGLPGPIGPPGPRGRTGDAGPVGPPGPPGPPGPPGPPSAGFDFSFLPQPPQEKAHDGGRYYRA
modifications: trans-4-hydroxyproline in place of proline at all proline positions (100% substitution by mass spectrometry and amino acid analysis)
notes: also called D4-α1; protein D4
With B1, the binding result is on record as “binds”.
